Laboratory results: patent publication US20140274782A1, “AFFINITY REAGENTS AND METHODS FOR DETECTION, PURIFICATION, AND PROTEOMIC ANALYSIS OF METHYLATED PROTEINS” (The Board of Trustees of the Leland Stanford Junior …, priority 2013, published 2014)

Columns and labels:
Assay in all cases: ProtoArray methylated with G9a SET domain
[1] = target: ACSL4, G9a-methylated (human) (UniProt O60488)
[2] = target: ARL6IP1, G9a-methylated (human) (UniProt Q15041)
[3] = target: BLCAP, G9a-methylated (human) (UniProt P62952)
[4] = target: C10orf58, G9a-methylated (human) (UniProt Q9BRX8)
C10orf58, G9a-methylated (human), sequence (Q9BRX8 whole entry): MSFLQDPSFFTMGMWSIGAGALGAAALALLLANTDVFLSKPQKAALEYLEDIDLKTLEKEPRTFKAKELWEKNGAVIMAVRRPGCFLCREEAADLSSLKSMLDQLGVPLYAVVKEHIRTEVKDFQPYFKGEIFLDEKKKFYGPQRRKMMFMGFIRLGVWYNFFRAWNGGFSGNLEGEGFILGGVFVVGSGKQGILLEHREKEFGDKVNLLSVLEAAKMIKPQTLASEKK

[5] = target: C11orf73, G9a-methylated (human) (UniProt Q53FT3)
[6] = target: C12orf62, G9a-methylated (human) (UniProt Q96I36)
[7] = target: C1QTNF6, G9a-methylated (human) (UniProt Q9BXI9)
C1QTNF6, G9a-methylated (human), sequence (Q9BXI9 47-278 limits assumed): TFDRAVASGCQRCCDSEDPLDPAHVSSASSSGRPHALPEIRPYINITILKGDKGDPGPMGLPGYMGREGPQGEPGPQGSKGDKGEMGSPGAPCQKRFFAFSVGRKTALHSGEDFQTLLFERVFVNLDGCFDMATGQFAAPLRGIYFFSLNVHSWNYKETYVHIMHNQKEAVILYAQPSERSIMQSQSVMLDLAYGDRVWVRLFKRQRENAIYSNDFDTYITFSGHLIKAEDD

[8] = target: C2orf43, G9a-methylated (human) (UniProt Q9H6V9)
C2orf43, G9a-methylated (human), sequence (Q9H6V9 whole entry): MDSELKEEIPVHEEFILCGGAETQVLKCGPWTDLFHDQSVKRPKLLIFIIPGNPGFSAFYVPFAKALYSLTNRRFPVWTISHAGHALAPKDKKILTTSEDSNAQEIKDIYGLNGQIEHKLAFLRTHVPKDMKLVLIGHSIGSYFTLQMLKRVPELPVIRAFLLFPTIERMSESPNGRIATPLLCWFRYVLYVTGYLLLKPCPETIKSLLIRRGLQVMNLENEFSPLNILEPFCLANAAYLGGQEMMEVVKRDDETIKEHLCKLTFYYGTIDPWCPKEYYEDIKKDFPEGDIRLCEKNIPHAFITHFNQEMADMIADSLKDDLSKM

[9] = target: CALN1, G9a-methylated (human) (UniProt Q9BXU9)
[10] = target: CRB3, G9a-methylated (human) (UniProt Q9BUF7)
[11] = target: CUTC, G9a-methylated (human) (UniProt Q9NTM9)
[12] = target: DGKA, G9a-methylated (human) (UniProt P23743)
[13] = target: DIRAS1, G9a-methylated (human) (UniProt O95057)
[14] = target: DNTT, G9a-methylated (human) (UniProt P04053)
DNTT, G9a-methylated (human), sequence (P04053 whole entry): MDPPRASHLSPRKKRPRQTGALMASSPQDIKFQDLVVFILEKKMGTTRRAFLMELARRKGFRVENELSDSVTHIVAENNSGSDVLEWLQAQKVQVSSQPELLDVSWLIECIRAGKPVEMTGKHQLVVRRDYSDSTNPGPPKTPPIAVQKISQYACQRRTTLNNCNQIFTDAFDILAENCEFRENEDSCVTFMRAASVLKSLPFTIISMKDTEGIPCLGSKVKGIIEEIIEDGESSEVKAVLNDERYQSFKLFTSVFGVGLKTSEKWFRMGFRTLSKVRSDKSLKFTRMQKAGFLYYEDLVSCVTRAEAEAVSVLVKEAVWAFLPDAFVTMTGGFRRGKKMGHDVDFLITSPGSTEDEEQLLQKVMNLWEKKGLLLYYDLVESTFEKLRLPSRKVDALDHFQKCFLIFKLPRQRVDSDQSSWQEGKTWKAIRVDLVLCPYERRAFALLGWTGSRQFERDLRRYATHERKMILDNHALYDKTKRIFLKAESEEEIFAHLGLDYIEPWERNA

[15] = target: DYNC2LI1, G9a-methylated (human) (UniProt Q8TCX1)
[16] = target: FTH1 (hit 104), G9a-methylated (human) (UniProt P02794)
FTH1 (hit 104), G9a-methylated (human), sequence (P02794 whole entry): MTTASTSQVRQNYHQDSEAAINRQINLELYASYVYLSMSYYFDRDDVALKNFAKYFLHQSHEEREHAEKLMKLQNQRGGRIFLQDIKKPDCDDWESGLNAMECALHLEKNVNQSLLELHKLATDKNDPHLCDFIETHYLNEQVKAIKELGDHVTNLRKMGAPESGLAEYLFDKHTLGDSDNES

[17] = target: FTH1 (hit 109), G9a-methylated (human) (UniProt P02794)
FTH1 (hit 109), G9a-methylated (human), sequence (P02794 whole entry): as above

[18] = target: GNPTAB, G9a-methylated (human) (UniProt Q3T906)
[19] = target: GPX1, G9a-methylated (human) (UniProt P07203)
[20] = target: GPX5, G9a-methylated (human) (UniProt O75715)
[21] = target: GYPC, G9a-methylated (human) (UniProt P04921)
[22] = target: HS3ST1, G9a-methylated (human) (UniProt O14792)
[23] = target: KRR1, G9a-methylated (human) (UniProt Q13601)
[24] = target: MGC10433 (RNA-binding protein 42), G9a-methylated (human) (UniProt Q9BTD8)
[25] = target: Magmas, G9a-methylated (human) (UniProt Q9Y3D7)
[26] = target: NME1, G9a-methylated (human) (UniProt P15531)
[27] = target: PPIL5, G9a-methylated (human) (UniProt Q96L50)
[28] = target: RAB33B, G9a-methylated (human) (UniProt Q9H082)
[29] = target: RAB7B, G9a-methylated (human) (UniProt Q96AH8)
RAB7B, G9a-methylated (human), sequence (Q96AH8 whole entry): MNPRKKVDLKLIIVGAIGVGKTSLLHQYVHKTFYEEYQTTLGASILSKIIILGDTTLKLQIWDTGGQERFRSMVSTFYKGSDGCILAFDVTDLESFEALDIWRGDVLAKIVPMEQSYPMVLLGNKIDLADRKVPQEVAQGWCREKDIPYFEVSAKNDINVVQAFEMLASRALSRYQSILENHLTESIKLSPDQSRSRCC

[30] = target: RASSF4, G9a-methylated (human) (UniProt Q9H2L5)
RASSF4, G9a-methylated (human), sequence (Q9H2L5 whole entry): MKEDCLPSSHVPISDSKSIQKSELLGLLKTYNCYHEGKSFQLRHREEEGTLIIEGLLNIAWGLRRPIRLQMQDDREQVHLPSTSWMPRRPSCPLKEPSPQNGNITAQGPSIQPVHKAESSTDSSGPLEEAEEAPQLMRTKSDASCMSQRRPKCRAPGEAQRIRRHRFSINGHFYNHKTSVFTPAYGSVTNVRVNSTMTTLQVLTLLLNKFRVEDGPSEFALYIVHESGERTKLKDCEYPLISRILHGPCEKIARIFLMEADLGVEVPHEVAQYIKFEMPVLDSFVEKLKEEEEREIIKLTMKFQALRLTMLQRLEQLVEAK

[31] = target: RPL14, G9a-methylated (human) (UniProt P50914)
[32] = target: RTN1, G9a-methylated (human) (UniProt Q16799)
RTN1, G9a-methylated (human), sequence (Q16799 other isoform, or with tags, fused parts or gaps limits assumed): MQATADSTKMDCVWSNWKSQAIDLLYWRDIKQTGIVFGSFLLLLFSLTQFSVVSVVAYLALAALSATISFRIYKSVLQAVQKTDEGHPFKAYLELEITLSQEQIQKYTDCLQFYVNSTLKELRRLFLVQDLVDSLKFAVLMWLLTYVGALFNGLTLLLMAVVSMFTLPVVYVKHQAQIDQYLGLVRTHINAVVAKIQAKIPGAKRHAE

[33] = target: SAR1B, G9a-methylated (human) (UniProt Q9Y6B6)
[34] = target: SCGB1A1, G9a-methylated (human) (UniProt P11684)
[35] = target: SH3YL1 (hit 65), G9a-methylated (human) (UniProt Q96HL8)
[36] = target: SMAP1, G9a-methylated (human) (UniProt Q8IYB5)
SMAP1, G9a-methylated (human), sequence (Q8IYB5 whole entry): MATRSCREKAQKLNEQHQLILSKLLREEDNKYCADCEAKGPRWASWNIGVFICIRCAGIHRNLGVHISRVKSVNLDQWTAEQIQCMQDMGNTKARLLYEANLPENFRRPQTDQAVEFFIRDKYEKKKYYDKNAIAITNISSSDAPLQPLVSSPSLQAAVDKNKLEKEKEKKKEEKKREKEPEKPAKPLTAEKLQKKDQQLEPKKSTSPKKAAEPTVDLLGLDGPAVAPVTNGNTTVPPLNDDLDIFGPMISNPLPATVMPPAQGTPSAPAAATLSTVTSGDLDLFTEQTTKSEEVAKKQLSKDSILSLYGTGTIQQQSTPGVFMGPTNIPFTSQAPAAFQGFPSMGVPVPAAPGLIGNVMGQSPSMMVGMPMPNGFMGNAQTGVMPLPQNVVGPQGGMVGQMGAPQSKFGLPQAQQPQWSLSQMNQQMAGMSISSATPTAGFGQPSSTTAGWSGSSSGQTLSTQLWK

[37] = target: SMYD5, G9a-methylated (human) (UniProt Q6GMV2)
SMYD5, G9a-methylated (human), sequence (Q6GMV2 whole entry): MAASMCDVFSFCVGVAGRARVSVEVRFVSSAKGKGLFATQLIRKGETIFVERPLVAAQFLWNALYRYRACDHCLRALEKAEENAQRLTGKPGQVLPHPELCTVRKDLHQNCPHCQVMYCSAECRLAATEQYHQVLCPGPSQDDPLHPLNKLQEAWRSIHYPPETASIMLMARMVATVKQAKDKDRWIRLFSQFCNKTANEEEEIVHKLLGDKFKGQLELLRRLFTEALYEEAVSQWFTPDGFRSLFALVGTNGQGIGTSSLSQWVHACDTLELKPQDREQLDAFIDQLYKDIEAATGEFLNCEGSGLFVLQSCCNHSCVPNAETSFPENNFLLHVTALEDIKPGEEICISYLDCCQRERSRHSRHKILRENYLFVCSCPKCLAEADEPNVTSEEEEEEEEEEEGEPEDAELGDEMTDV

[38] = target: TEAD4, G9a-methylated (human) (UniProt Q15561)
TEAD4, G9a-methylated (human), sequence (Q15561 130-434 limits assumed): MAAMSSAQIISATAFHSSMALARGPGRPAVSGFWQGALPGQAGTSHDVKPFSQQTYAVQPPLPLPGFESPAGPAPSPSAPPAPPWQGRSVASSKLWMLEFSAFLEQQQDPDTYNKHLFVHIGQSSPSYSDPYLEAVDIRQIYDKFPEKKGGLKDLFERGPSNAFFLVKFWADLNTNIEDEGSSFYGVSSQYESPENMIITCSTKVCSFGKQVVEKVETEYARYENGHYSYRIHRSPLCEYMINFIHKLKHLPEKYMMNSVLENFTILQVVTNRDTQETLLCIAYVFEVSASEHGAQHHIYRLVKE

[39] = target: TMEM32, G9a-methylated (human) (UniProt Q8N4V1)
[40] = target: TMEM97, G9a-methylated (human) (UniProt Q5BJF2)
TMEM97, G9a-methylated (human), sequence (Q5BJF2 whole entry): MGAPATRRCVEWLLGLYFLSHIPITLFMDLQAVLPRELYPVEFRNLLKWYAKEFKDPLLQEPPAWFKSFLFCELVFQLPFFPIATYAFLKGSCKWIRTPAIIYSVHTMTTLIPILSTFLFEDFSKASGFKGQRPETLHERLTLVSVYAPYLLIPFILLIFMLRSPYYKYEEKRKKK

[41] = target: TTC27, G9a-methylated (human) (UniProt Q6P3X3)
[42] = target: UBE2D2, G9a-methylated (human) (UniProt P62837)
[43] = target: WDR45, G9a-methylated (human) (UniProt Q9Y484)
WDR45, G9a-methylated (human), sequence (Q9Y484 other isoform, or with tags, fused parts or gaps limits assumed): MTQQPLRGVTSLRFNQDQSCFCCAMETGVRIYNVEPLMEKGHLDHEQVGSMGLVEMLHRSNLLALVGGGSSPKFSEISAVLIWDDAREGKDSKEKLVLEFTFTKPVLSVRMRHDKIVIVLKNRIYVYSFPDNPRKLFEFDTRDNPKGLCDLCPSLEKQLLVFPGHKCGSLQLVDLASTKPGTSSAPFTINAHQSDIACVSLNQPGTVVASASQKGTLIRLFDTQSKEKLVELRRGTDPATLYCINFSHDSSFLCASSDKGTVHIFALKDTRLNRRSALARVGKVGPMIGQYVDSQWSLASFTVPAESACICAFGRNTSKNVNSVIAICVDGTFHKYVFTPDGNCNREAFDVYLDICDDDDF

[44] = target: ZNF695, G9a-methylated (human) (UniProt Q8IW36)
[45] = target: ZRANB1, G9a-methylated (human) (UniProt Q9UGI0)
ZRANB1, G9a-methylated (human), sequence (Q9UGI0 whole entry): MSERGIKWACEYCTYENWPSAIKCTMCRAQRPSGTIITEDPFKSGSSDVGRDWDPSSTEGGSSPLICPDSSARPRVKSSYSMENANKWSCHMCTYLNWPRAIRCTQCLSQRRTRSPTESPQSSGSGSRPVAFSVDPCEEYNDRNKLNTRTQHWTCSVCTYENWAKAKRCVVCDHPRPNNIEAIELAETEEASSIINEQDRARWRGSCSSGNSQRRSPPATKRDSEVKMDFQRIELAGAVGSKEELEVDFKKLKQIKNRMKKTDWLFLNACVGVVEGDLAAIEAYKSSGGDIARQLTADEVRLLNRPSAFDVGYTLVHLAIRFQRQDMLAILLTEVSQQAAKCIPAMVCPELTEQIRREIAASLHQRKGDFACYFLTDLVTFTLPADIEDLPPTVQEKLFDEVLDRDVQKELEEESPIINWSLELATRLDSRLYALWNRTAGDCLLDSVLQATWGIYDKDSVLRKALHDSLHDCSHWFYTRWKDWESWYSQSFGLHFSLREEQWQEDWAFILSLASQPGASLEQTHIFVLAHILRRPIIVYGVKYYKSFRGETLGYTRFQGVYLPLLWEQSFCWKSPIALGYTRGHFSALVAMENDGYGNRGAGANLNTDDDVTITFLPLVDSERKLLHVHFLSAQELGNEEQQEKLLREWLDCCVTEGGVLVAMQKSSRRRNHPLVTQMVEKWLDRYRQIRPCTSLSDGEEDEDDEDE

G9a Average SNR [1]: 13.5
G9a Average SNR [2]: 21.8
G9a Average SNR [3]: 26.4
G9a Average SNR [4]: 17
G9a Average SNR [5]: 13.5
G9a Average SNR [6]: 14.9
G9a Average SNR [7]: 16.4
G9a Average SNR [8]: 11.9
G9a Average SNR [9]: 18.6
G9a Average SNR [10]: 15.2
G9a Average SNR [11]: 13.6
G9a Average SNR [12]: 15.5
G9a Average SNR [13]: 29.2
G9a Average SNR [14]: 49.9
G9a Average SNR [15]: 11.6
G9a Average SNR [16]: 30.4
G9a Average SNR [17]: 38.7
G9a Average SNR [18]: 16.5
G9a Average SNR [19]: 15.8
G9a Average SNR [20]: 25.5
G9a Average SNR [21]: 13.4
G9a Average SNR [22]: 13.3
G9a Average SNR [23]: 29.8
G9a Average SNR [24]: 14.1
G9a Average SNR [25]: 13.9
G9a Average SNR [26]: 15.2
G9a Average SNR [27]: 11.8
G9a Average SNR [28]: 20.2
G9a Average SNR [29]: 12.7
G9a Average SNR [30]: 15.7
G9a Average SNR [31]: 18.4
G9a Average SNR [32]: 14.7
G9a Average SNR [33]: 19.8
G9a Average SNR [34]: 19.6
G9a Average SNR [35]: 16.5
G9a Average SNR [36]: 21.5
G9a Average SNR [37]: 20.7
G9a Average SNR [38]: 16.9
G9a Average SNR [39]: 13.6
G9a Average SNR [40]: 21.2
G9a Average SNR [41]: 20.7
G9a Average SNR [42]: 37.2
G9a Average SNR [43]: 16.6
G9a Average SNR [44]: 20.3
G9a Average SNR [45]: 13.2
Substance: 3× Flag-3×MBT (designed binder)
